T1: cynomolgus soluble ULBP5 (cULBP5) (cynomolgus)
T1 construct: also called Cyno-cULBP5
T1 chain: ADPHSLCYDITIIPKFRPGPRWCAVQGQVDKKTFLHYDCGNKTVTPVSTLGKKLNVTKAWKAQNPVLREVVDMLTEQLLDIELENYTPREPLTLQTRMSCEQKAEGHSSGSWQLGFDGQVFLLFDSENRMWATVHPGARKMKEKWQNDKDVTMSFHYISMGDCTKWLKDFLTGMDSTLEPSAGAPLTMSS

T2: cynomolgus soluble ULBP2/6 (cULBP2/6) (cynomolgus, UniProt Q5VY80 28-217 (human entry), limits assumed)
T2 construct: also called cyno ULBP6; Cyno-cULBP2/6
T2 chain: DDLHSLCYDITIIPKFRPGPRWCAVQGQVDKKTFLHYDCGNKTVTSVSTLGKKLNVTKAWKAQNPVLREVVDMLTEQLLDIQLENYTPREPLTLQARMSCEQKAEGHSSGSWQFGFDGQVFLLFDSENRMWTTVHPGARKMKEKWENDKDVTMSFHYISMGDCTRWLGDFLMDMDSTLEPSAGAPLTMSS

T3: human soluble ULBP2 (hULBP2) (human, UniProt Q9BZM5 26-216)
T3 construct: also called sULBP2
T3 sequence: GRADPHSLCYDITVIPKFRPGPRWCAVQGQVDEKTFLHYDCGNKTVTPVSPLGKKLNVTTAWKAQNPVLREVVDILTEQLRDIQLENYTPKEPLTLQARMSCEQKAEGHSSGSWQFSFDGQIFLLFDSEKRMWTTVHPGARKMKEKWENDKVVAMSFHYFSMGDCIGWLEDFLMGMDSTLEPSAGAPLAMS

T4: human soluble ULBP5 (hULBP5) (human, UniProt Q6H3X3 26-218)
T4 construct: also called sULBP5
T4 sequence: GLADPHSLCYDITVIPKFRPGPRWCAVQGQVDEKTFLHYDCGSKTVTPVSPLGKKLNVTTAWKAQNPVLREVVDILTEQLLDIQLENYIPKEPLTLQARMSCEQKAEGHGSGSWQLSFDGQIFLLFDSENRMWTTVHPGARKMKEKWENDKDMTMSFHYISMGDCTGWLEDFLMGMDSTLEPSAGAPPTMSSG

T5: NKG2D on cells (NKG2D expressing cells, primed PBMCs) (UniProt P26718 1-216)
T5 construct: whole, on cells; also called cell surface NKG2D
T5 sequence (looked up): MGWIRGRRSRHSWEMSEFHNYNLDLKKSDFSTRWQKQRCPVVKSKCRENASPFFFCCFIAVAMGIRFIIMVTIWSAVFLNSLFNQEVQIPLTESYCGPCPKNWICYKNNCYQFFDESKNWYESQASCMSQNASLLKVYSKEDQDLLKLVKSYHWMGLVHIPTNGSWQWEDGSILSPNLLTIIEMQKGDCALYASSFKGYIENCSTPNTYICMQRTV

B1: human soluble ULBP6 haplotype 02 (hULBP6_02) (ligand)
chain: RRDDPHSLCYDITVIPKFRPGPRWCAVQGQVDEKTFLHYDCGNKTVTPVSPLGKKLNVTTAWKAQNPVLREVVDILTEQLLDIQLENYTPKEPLTLQARMSCEQKAEGHSSGSWQFSIDGQTFLLFDSEKRMWTTVHPGARKMKEKWENDKDVAMSFHYISMGDCIGWLEDFLMGMDSTLEPSAGAPLAMSSG
notes: also called sULBP6_02
B2: human soluble ULBP6 haplotype 01 (hULBP6_01) (ligand)
chain: GRDDPHSLCYDITVIPKFRPGPRWCAVQGQVDEKTFLHYDCGNKTVTPVSPLGKKLNVTTAWKAQNPVLREVVDILTEQLRDIQLENYTPKEPLTLQARMSCEQKAEGHSSGSWQFSIDGQIFLLFDSEKRMWTTVHPGARKMKEKWENDKDVAMSFHYISMGDCIGWLEDFLMGMDSTLEPSAGAPLAMSSG
notes: also called sULBP6_01

What was measured:
[1] = biological target: B2; assay: blocking ELISA; hNKG2D coated, antibody titrated with biotinylated hULBP6_01
[2] = biological target: B2; assay: blocking ELISA; hNKG2D coated, antibody titrated with biotinylated hULBP6_01; hNKG2D-hULBP6_01 interaction; value of the running text
[3] = biological target: B1; assay: blocking ELISA; hNKG2D coated, antibody titrated with biotinylated hULBP6_02
[4] = biological target: B1; assay: cell-based or functional assay
[5] = biological target: T1, cynomolgus soluble ULBP5 (cULBP5); assay: SPR (BIACORE);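 note: soluble human and cynomolgus NKG2D ligands injected as analytes in 3-fold dilution series spanning 0.01 to 50 nM at 37 °C, reference-subtracted sensorgrams fitted to a 1:1 Langmuir model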
[6] = biological target: T2, cynomolgus soluble ULBP2/6 (cULBP2/6); assay: SPR (BIACORE);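 note: soluble human and cynomolgus NKG2D ligands injected as analytes in 3-fold dilution series spanning 0.01 to 50 nM at 37 °C, reference-subtracted sensorgrams fitted to a 1:1 Langmuir model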
[7] = biological target: T3, human soluble ULBP2 (hULBP2); assay: SPR (BIACORE);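 note: soluble human and cynomolgus NKG2D ligands injected as analytes in 3-fold dilution series spanning 0.01 to 50 nM at 37 °C, reference-subtracted sensorgrams fitted to a 1:1 Langmuir model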
[8] = biological target: T4, human soluble ULBP5 (hULBP5); assay: SPR (BIACORE);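 note: soluble human and cynomolgus NKG2D ligands injected as analytes in 3-fold dilution series spanning 0.01 to 50 nM at 37 °C, reference-subtracted sensorgrams fitted to a 1:1 Langmuir model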
[9] = biological target: B2; assay: SPR (BIACORE)
[10] = biological target: B1; assay: SPR (BIACORE)
[11] = biological target: B1; assay: blocking ELISA; hNKG2D coated, antibody titrated with biotinylated hULBP6_02; hNKG2D-hULBP6_02 interaction; value of the running text
[12] = biological target: T2, cynomolgus soluble ULBP2/6 (cULBP2/6); assay: BLI (OCTET), mouse antibody captured from hybridoma supernatant on AMC biosensor, 300 nM cULBP2/6
[13] = biological target: hNKG2D-Fc (human NKG2D 78-216 with C-terminal long huFc-Flag tag) (human); assay: SPR (BIACORE 8K, 37 C); hNKG2D-Fc captured on Protein A, soluble ligand injected
[14] = biological target: T5, NKG2D on cells (NKG2D expressing cells, …); assay: competition with anti-NKG2D mAb on NKG2D expressing cells (data not shown)

hNKG2D-Fc (human NKG2D 78-216 with C-terminal long huFc-Flag tag) (human), sequence (chain, as listed by the source limits assumed): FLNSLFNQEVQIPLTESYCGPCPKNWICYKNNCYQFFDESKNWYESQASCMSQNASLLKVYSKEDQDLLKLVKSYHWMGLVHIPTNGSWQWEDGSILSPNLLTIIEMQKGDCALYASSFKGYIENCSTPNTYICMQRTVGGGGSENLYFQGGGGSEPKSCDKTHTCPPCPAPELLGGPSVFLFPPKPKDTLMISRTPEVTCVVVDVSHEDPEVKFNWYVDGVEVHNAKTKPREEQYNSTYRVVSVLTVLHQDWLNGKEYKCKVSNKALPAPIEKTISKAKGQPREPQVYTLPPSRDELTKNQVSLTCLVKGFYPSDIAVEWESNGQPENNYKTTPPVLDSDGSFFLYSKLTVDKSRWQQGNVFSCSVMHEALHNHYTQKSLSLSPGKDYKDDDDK

| IC50 [1] | IC50 [2] | IC50 [3] | EC50 (read off the curve); NKG2D MFI on primed PBMCs of donor 1307 with 50 nM sULBP6_02 [4] | Kd [5] | Kd [6] | Kd [7] | Kd [8] | Kd [9] | Kd [10] | IC50 [11] | binding result [12] | Kd [13] | binding result [14] | Binder |
| --- | --- | --- | --- | --- | --- | --- | --- | --- | --- | --- | --- | --- | --- | --- |
| 5.06 nM | 4.32 nM | 0.035 nM | ~20 nM | 23.1 nM | 2.06 nM | 0.5 nM | 1.76 nM | 0.27 nM | 0.28 nM | 1.59 nM |  |  |  | Humanized 8E11 (h8E11) (E-) (antibody, human IgG1, kappa, N297G, V domains shown, hIgG1 with N297G (effector negative)) VH: EVQLVESGGGLVQPGGSLRLSCAASGFTFRTYGMHWVRQAPGKGLEWVAYISSGSGTIDYADTVKGRFTISRDNAKNSLYLQMNSLRAEDTAVYYCTRQTGAMDYWGQGTLVTVSS VL: EIVLTQSPATLSLSPGERATLSCSASSSVSYMNWYQQKPGQSPRLWIYGISNLASGVPARFSGSGSGTDFTLTISSLEPEDFAVYYCQQRSSHPLTFGGGTKVEIKR |
| 4.48 nM | 4.47 nM | 0.028 nM | ~20 nM | 7.67 nM | 0.48 nM | 0.54 nM | 2.39 nM | 0.22 nM | 0.2 nM | 1.52 nM |  |  |  | Humanized 7B3 (h7B3) (E-) (antibody, human IgG1, kappa, N297G, V domains shown, hIgG1 with N297G (effector negative)) VH: EVQLVESGGGLVQPGGSLRLSCAASGFTFSTYGFHWVRQAPGKGLEWVAYISSNSGTIDYADTVKGRFTISRDNAKNSLYLQMNSLRAEDTAVYYCARQGYGFDNWGQGTTVTVSS VL: DIQLTQSPSSLSASVGDRVTITCSASSRVSYMNWYQQKPGKSPKIWVYGISNLASGVPSRFSGSGSGTDFTFTISSLQPEDIATYYCQQRSSHPLTFGGGTKVEIKR |
|  |  |  |  |  |  |  |  |  |  |  | binds |  |  | 8E11 (mouse hybridoma clone) (antibody, V domains shown, Tested as hybridoma culture supernatant) VH: DVQLVESGGGLVQPGGSRKLSCAASGFTFRTYGMHWVRQAPEKGLEWVAYISSGSGTIDYADTVKGRFTISRDNAKNTLFLQMTSLRSEDTAMYYCTRQTGAMDYWGQGTSVTVSS VL: EILLTQSPAIIAASPGEKVTITCSASSSVSYMNWYQQKPGSSPKLWIYGISNLASGVPARFSGSGSGTSFSFTINSMEAEDVATYYCQQRSSHPLTFGAGTKLELK |
|  |  |  |  |  |  |  |  |  |  |  | binds |  |  | 7B3 (mouse hybridoma clone) (antibody, V domains shown, Tested as hybridoma culture supernatant; also called mAb 7B3) VH: DVQLVESGGGLVKPGGSRKLSCAASGFTFSTYGFHWVRQVPEKGLEWVAYISSNSGTIDYADTVKGRFTISRDNAKNTLFLQMTSLRSEDTAMYYCARQGYGFDNWGQGTTLTVSS VL: EILLTQSPAIIAASPGEKVTITCSASSRVSYMNWYQQKPGSSPKIWVYGISNLASGVPARFSGSGSGTSFSFTINSMEAEDVATYYCQQRSSHPLTFGAGTKLELK |
|  |  |  |  |  |  |  |  |  |  |  |  | 4.8 nM | binds | B1 |
|  |  |  |  |  |  |  |  |  |  |  |  | 41 nM | binds | B2 |
